Data: paper PMC4197961 (Genes & Development, 2014)
Ends that are not written are not given here. Me2 = dimethyl (dimethyl-lysine)

Assays:
[1] = biological target: truncated KDM2A construct (36–517) lacking the 1–35 and 365–449 peptide segments (UniProt Q9Y2K7)
KDM2A K323A/F324A = biological target: T1, KDM2A K323A/F324A (UniProt Q9Y2K7 1-1162, K323A | F324A); assay: cell-based or functional assay
T1 sequence (looked up): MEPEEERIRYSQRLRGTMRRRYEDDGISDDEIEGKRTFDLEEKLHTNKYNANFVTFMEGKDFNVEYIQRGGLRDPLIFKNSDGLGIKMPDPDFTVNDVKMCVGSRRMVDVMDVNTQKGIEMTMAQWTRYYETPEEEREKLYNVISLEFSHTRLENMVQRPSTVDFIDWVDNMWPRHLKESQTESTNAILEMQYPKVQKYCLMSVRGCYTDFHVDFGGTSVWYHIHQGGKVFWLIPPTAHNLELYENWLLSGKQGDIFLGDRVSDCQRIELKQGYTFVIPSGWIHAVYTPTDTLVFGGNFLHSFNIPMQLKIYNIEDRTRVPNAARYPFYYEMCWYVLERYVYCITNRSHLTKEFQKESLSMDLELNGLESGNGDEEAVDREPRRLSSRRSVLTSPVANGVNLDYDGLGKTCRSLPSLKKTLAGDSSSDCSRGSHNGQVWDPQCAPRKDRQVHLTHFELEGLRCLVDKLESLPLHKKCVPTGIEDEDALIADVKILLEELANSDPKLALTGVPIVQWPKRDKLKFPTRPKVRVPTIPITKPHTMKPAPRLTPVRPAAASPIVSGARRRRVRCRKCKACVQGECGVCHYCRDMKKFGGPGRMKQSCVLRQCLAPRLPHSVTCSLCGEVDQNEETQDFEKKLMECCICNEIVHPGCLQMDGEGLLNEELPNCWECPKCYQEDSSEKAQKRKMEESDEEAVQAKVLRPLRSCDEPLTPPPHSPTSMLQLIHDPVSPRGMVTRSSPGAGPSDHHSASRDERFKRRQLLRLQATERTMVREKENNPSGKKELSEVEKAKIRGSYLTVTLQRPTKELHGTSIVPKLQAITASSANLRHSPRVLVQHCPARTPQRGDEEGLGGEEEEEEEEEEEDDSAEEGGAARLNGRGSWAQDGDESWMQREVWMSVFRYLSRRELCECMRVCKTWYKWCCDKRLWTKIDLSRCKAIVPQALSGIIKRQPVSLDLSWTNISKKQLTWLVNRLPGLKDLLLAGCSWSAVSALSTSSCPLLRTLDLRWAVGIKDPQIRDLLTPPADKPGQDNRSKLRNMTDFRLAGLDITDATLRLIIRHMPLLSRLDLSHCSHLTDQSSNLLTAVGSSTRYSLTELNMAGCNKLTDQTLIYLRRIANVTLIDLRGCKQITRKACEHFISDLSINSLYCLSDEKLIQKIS

KDM2A N186A = biological target: T2, KDM2A N186A (UniProt Q9Y2K7 1-1162, N186A); assay: cell-based or functional assay
T2 sequence (looked up): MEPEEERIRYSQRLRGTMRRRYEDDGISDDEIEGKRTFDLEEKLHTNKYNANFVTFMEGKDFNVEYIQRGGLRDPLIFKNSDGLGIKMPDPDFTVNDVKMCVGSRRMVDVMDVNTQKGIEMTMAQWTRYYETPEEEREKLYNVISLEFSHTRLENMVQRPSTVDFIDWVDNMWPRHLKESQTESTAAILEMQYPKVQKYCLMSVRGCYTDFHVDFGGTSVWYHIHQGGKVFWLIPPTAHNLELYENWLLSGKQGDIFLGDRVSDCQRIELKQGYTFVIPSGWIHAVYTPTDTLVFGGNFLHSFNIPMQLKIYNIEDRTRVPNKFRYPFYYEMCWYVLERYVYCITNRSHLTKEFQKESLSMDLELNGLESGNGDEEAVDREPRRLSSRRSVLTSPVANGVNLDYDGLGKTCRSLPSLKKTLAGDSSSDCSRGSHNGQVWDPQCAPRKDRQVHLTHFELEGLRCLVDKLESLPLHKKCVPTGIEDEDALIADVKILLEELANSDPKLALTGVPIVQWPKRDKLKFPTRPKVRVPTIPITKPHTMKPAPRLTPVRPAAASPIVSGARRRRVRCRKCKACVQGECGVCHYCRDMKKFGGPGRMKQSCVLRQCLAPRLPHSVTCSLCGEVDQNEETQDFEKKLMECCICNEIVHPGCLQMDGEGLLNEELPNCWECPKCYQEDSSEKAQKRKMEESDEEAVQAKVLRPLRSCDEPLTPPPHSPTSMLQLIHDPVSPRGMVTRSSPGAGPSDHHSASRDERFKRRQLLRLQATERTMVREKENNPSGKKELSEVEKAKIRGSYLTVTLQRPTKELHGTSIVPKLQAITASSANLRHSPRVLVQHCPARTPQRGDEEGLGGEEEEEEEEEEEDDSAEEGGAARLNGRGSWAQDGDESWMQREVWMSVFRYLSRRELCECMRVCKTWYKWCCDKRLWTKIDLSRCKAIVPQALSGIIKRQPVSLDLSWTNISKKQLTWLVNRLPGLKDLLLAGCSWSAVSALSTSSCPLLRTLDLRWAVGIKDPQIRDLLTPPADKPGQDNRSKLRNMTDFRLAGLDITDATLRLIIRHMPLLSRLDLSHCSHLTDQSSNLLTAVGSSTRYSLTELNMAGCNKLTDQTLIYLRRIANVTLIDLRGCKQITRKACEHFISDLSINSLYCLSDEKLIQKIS

Row | Molecule | demethylation of the mutant H3K36me2 peptide by wild-type KDM2A in vitro [1] [fold] | H3K36me2 demethylation activity in vitro, fluorescence-based assay (KDM2A K323A/F324A) [fold reduction] | H3K36me2 demethylation activity in vitro, fluorescence-based assay (KDM2A N186A) [fold reduction]
1 | H3K36me2 peptide Y41A | < 2 |  | 
2 | APATGGVK(Me2)KPHRY [H3(A29–Y41)K36me2 peptide] |  | ~3 | ~3
